Substitutions are numbered along the chain they refer to. Names and notes keep the numbering of the source.

The record followed here is US20250327097A1, “ORGANISMS PRODUCING LESS CROTONIC ACID” (Global Bioenergies, priority 2021, published 2025).

To fix the notation:
B1: N287T-N388M-K394R-C430N-L432F-L434W-S436N (protein)
chain: MFLKSLREQINLLKRQGDLRIINRPVDSYLEAAAIIRRSTETKAPVPLMTNIKGYPGCSIVGGLAALSSNPEYPLSRVAMSLGLSTTASAQSIVQYLIDGLKKTPYLPVEIDSNSAPCKQNILRGEDASLAHFPIPQVHQHDGNRYVNTWGVFIVESPDGQWCNWSIQRVQYLNDRQMIALVFPSQHISDIWEEWVKIGKPMPYALVQGCEPIVPYIAGLPLLERNVNEAEYIGALYGKGIEVVKCETHDLRVPASSEVVIEGYFAITREGVEGPFGEFAGYIPNETSLQPILSITAISWQDDPIWPVVAEGKPVDEYHTCSGIGDAAAIQNVLLTANLPVSFVWVPLYSACHLMIVSINRHWRQTHPDLTSEQLTKKVGDVIHQTRMSIKLPRIVVLDDDVDPADTESLLWALATRIHPERKRYFYESNIFPWLNCYSEEERHNRKGKRVIIDALLPENHGAISSFDYAYPDDIKQRVLMHWETDFSHD
B2: I283T-N285P-N287T-Q290E-S322T-N388M-K394R-C430A-L432F-L434W-S436N-S439P-dG462 (protein)
chain: B1 chain with I283T, N285P, Q290E, S322T, N430A, S439P
B3: I283T-N285P-N287T-Q290E-S322T-M355V-N388M-K394R-C430A-L432F-L434W-S436N-dG462 (protein)
chain: B1 chain with I283T, N285P, Q290E, S322T, M355V, N430A
B4: V227L-I283T-N285P-N287T-Q290E-S322T-N388M-K394R-C430A-L432F-L434W-S436N-dG462 (protein)
chain: B1 chain with V227L, I283T, N285P, Q290E, S322T, N430A
B5: I283T-N285P-E286A-N287T-Q290E-S322T-N388M-K394R-C430A-L432F-L434W-S436N-dG462 (protein)
chain: B1 chain with I283T, N285P, E286A, Q290E, S322T, N430A
B6: I283T-N285P-N287T-Q290E-S322T-N388M-K394R-C430A-L432F-L434W-S436N-Y438W-dG462 (protein)
chain: B1 chain with I283T, N285P, Q290E, S322T, N430A, Y438W
B7: I283T-N285P-N287T-Q290E-S322T-N388M-K394H-C430A-L432F-L434W-S436N-dG462 (protein)
chain: B1 chain with I283T, N285P, Q290E, S322T, R394H, N430A
B8: N332H-N388M-K394R-C430N-L432F-L434W-S436N (protein)
chain: B1 chain with T287N, N332H
B9: I283T-N285P-N287T-Q290E-S322T-N388M-K394R-C430A-I431P-L432F-L434W-S436N-dG462 (protein)
chain: B1 chain with I283T, N285P, Q290E, S322T, N430A, I431P
B10: I283T-N285P-N287T-Q290E-S322T-N388M-K394R-H419A-C430A-L432F-L434W-S436N-dG462 (protein)
chain: B1 chain with I283T, N285P, Q290E, S322T, H419A, N430A
B11: D27N-I283T-N285P-N287T-Q290E-S322T-N388M-K394R-C430A-L432F-L434W-S436N-G448T-dG462 (protein)
chain: B1 chain with D27N, I283T, N285P, Q290E, S322T, N430A, G448T
B12: I283T-N285P-N287T-Q290E-S322T-N388M-K394R-H419P-C430A-L432F-L434W-S436N-dG462 (protein)
chain: B1 chain with I283T, N285P, Q290E, S322T, H419P, N430A
B13: I283T-N285P-N287T-Q290E-S322T-M355T-N388M-K394R-C430A-L432F-L434W-S436N-dG462 (protein)
chain: B1 chain with I283T, N285P, Q290E, S322T, M355T, N430A
B14: I283T-N285P-N287T-Q290E-S322T-N388M-K394R-C430A-L432F-L434W-S436N-C437L-dG462 (protein)
chain: B1 chain with I283T, N285P, Q290E, S322T, N430A, C437L
B15: I283T-N285P-N287T-Q290E-S322T-N388M-K394R-C430A-I431K-L432F-L434W-S436N-dG462 (protein)
chain: B1 chain with I283T, N285P, Q290E, S322T, N430A, I431K
B16: I283T-N285P-N287T-Q290E-S322T-M355C-N388M-K394R-C430A-L432F-L434W-S436N-dG462 (protein)
chain: B1 chain with I283T, N285P, Q290E, S322T, M355C, N430A
B17: I283T-N285P-N287T-Q290E-S322T-N388M-K394R-C430A-I431N-L432F-L434W-S436N-dG462 (protein)
chain: B1 chain with I283T, N285P, Q290E, S322T, N430A, I431N
B18: I283T-N285P-N287T-Q290E-S322T-N388M-K394R-C430A-I431T-L432F-L434W-S436N-dG462 (protein)
chain: B1 chain with I283T, N285P, Q290E, S322T, N430A, I431T
B19: N287V-N388M-K394R-C430N-L432F-L434W-S436N (protein)
chain: B1 chain with T287V
B20: I283T-N285P-N287T-Q290E-S322T-N388M-K394R-C430A-L432F-L434W-S436N-Y438M-dG462 (protein)
chain: B1 chain with I283T, N285P, Q290E, S322T, N430A, Y438M
B21: I283T-N285P-N287T-Q290E-S322T-N388M-K394R-C430A-I431A-L432F-L434W-S436N-dG462 (protein)
chain: B1 chain with I283T, N285P, Q290E, S322T, N430A, I431A
B22: I283T-N285P-N287T-Q290E-S322T-N388M-K394R-C430A-I431C-L432F-L434W-S436N-dG462 (protein)
chain: B1 chain with I283T, N285P, Q290E, S322T, N430A, I431C
B23: I283T-N285P-N287T-Q290E-S322T-N388M-K394R-E421W-C430A-L432F-L434W-S436N-dG462 (protein)
chain: B1 chain with I283T, N285P, Q290E, S322T, E421W, N430A
B24: I283T-N285P-N287T-Q290E-S322T-N388S-K394R-C430A-L432F-L434W-S436N-dG462 (protein)
chain: B1 chain with I283T, N285P, Q290E, S322T, M388S, N430A
B25: I283T-N285P-N287T-Q290E-S322T-N388M-K394R-C430A-L432F-L434W-S436N-C437T-dG462 (protein)
chain: B1 chain with I283T, N285P, Q290E, S322T, N430A, C437T
B26: I283T-N285P-N287T-Q290E-S322T-N388M-K394R-E421L-C430A-L432F-L434W-S436N-dG462 (protein)
chain: B1 chain with I283T, N285P, Q290E, S322T, E421L, N430A
B27: I283T-N285P-N287T-Q290E-S322T-R361K-N388M-K394R-C430A-L432F-L434W-S436N-dG462 (protein)
chain: B1 chain with I283T, N285P, Q290E, S322T, R361K, N430A
B28: I283T-N285P-N287T-Q290E-S322T-N388M-K394R-C430A-L432F-L434W-S436N-K447T-dG462 (protein)
chain: B1 chain with I283T, N285P, Q290E, S322T, N430A, K447T
B29: I283T-N285P-N287T-Q290E-S322T-N388M-K394R-S429V-C430A-L432F-L434W-S436N-dG462 (protein)
chain: B1 chain with I283T, N285P, Q290E, S322T, S429V, N430A
B30: I283T-N285P-N287T-Q290E-S322T-N388M-K394R-C430S-L432F-L434W-S436N-dG462 (protein)
chain: B1 chain with I283T, N285P, Q290E, S322T, N430S
B31: I283T-N285P-N287T-Q290E-S322T-N388M-K394R-C430A-L432F-L434W-S436N-C437M-dG462 (protein)
chain: B1 chain with I283T, N285P, Q290E, S322T, N430A, C437M
B32: I283T-N285P-N287T-Q290E-S322T-N388M-K394R-C430A-L432F-L434W-S436N-C437I-dG462 (protein)
chain: B1 chain with I283T, N285P, Q290E, S322T, N430A, C437I

The test system of the test is 3-methylcrotonic acid. The format is biochemical, Yersinia frederiksenii. Details: key: “+” representing a low increase in activity; “++++” representing a high increase in activity.
Turning to B1, the “Activity relative to WT” value is recorded as “+”.

As for B2, the “Activity relative to WT” value was “++++”.

As for B3, the “Activity relative to WT” value was “++++”. On to B4, for which the “Activity relative to WT” value is given as “++++”.

Take B5: the “Activity relative to WT” value is listed as “++++”. In the case of B6 it was “++++”. Regarding B7, the “Activity relative to WT” value is “++++”. As to B8, the “Activity relative to WT” value is listed as “+”. B9: the “Activity relative to WT” value is “++++”. With B10, the “Activity relative to WT” value is listed as “++++”. For the molecule B11, the “Activity relative to WT” value is “++++”. The result for B12 reads “++++”; that for B13, “++++”. Consider B14, for which the “Activity relative to WT” value is given as “++++”. With B15, the “Activity relative to WT” value is recorded as “++++”. Turning to B16, the “Activity relative to WT” value is “++++”. With B17, the “Activity relative to WT” value is reported as “++++”. For B18, the “Activity relative to WT” value is on record as “++++”.

In the case of B19, the “Activity relative to WT” value was “+”. Take B20: the “Activity relative to WT” value is given as “++++”.

Consider B21, for which the “Activity relative to WT” value is reported as “++++”. Consider B22, for which the “Activity relative to WT” value was “++++”.

B23: the “Activity relative to WT” value is recorded as “++++”. Turning to B24, the “Activity relative to WT” value was “++++”. Turning to B25, the “Activity relative to WT” value is “++++”. The result for B26 reads “++++”; that for B27, “++++”; that for B28, “++++”. Take B29: the “Activity relative to WT” value is “++++”. B30: the “Activity relative to WT” value is reported as “++++”. For the molecule B31, the “Activity relative to WT” value is “++++”. In the case of B32 it was “++++”.
